Columns and labels:
HeLa Kyoto [1] = test: solubility in G1/S (NP-40 vs SDS abundance) (log2 ratio); higher = more soluble; details: cell cycle stage: G1/S
HeLa Kyoto [2] = test: melting temperature (median over replicates), in situ; higher = more thermally stable
HeLa Kyoto [3] = test: solubility change mitosis vs G1/S (difference of NP-40 vs SDS log2 ratios) (log2 ratio difference); higher = more soluble in mitosis
HeLa Kyoto [4] = test: thermal stability score vs G1/S (z-score of summed log2 fold changes over temperatures); higher = more thermally stable than in G1/S
[5] = cell cycle stage: early G1 (4.5 h after nocodazole release)
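Wherever melting temperature (median over replicates), in situ is given: HeLa Kyoto cells synchronized by double thymidine or nocodazole block, proteins quantified by TMT10plex mass spectrometry, three independent biological replicates.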
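Wherever solubility change mitosis vs G1/S (difference of NP-40 vs SDS log2 ratios) is given: synchronized HeLa Kyoto cells (double thymidine block for G1/S, nocodazole release for mitosis), protein amounts in NP-40 versus SDS lysates quantified by mass spectrometry, three biological replicates.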
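Wherever solubility in G1/S (NP-40 vs SDS abundance) is given: HeLa Kyoto cells arrested at G1/S by double thymidine block, proteins quantified by TMT10plex mass spectrometry in mild NP-40 versus SDS extracts, three biological replicates.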
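Wherever thermal stability score vs G1/S (z-score of summed log2 fold changes over temperatures) is given: synchronized HeLa Kyoto cells, proteins quantified by TMT10plex mass spectrometry, three biological replicates, mitosis taken 0.5 h after nocodazole release, G1/S directly after double thymidine block.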

Sequence of MARK2 (chain, as listed by the source): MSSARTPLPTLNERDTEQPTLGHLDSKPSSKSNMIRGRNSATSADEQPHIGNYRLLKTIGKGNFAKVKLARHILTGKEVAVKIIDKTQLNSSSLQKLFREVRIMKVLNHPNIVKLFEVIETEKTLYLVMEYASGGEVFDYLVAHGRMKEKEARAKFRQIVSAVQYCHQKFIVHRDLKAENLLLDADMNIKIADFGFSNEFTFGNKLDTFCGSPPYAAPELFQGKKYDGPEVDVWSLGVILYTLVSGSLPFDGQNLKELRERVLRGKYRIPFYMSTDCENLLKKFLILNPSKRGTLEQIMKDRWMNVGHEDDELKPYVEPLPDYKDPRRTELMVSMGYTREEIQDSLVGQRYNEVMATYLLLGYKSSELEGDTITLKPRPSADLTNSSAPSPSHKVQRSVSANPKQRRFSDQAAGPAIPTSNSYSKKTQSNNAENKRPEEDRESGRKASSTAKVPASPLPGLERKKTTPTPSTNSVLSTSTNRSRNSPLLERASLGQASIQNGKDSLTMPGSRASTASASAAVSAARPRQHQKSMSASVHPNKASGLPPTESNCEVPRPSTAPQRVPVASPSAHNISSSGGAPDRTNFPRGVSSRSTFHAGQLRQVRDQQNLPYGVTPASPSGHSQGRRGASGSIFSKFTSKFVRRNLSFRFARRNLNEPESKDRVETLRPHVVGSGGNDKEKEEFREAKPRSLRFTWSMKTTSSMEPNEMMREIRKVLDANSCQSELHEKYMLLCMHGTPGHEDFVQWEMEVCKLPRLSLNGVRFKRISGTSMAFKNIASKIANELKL

Substance | solubility in G1/S (log2) (HeLa Kyoto [1]) | melting temperature (HeLa Kyoto [2]; cell cycle stage: G1/S) [°C] | melting temperature (HeLa Kyoto [2]; cell cycle stage: mitosis) [°C] | solubility change mitosis (log2) (HeLa Kyoto [3]) | thermal stability score (HeLa Kyoto [4]; [5]) | thermal stability score (HeLa Kyoto [4]; cell cycle stage: mitosis)
MAQAGVVGEVTQVLCAAGGALELPELRRRLRMGLSADALERLLRQRGRFVVAVRAGGAAAAPERVVLAASPLRLCRAHQGSKPGCVGLCAQLHLCRFMVYGACKFLRAGKNCRNSHSLTTEHNLSVLRTHGVDHLSYNELCQLLFQNDPWLLPEICQHYNKGDGPHGSCAFQKQCIKLHICQYFLQGECKFGTSCKRSHDFSNSENLEKLEKLGMSSDLVSRLPTIYRNAHDIKNKSSAPSRVPPLFVPQGTSERKDSSGSVSPNTLSQEEGDQICLYHIRKSCSFQDKCHRVHFHLPYRWQFLDRGKWEDLDNMELIEEAYCNPKIERILCSESASTFHSHCLNFNAMTYGATQARRLSTASSVTKPPHFILTTDWIWYWSDEFGSWQEYGRQGTVHPVTTVSSSDVEKAYLAYCTPGSDGQAATLKFQAGKHNYELDFKAFVQKNLVYGTTKKVCRRPKYVSPQDVTTMQTCNTKFPGPKSIPDYWDSSALPDPGFQKITLSSSSEEYQKVWNLFNRTLPFYFVQKIERVQNLALWEVYQWQKGQMQKQNGGKAVDERQLFHGTSAIFVDAICQQNFDWRVCGVHGTSYGKGSYFARDAAYSHHYSKSDTQTHTMFLARVLVGEFVRGNASFVRPPAKEGWSNAFYDSCVNSVSDPSIFVIFEKHQVYPEYVIQYTTSSKPSVTPSILLALGSLFSSRQ [PARP12] | -0.201 | 49.2 | 48.1 | -0.0418 | 1.19 | 1.46
MAQALSEEEFQRMQAQLLELRTNNYQLSDELRKNGVELTSLRQKVAYLDKEFSKAQKALSKSKKAQEVEVLLSENEMLQAKLHSQEEDFRLQNSTLMAEFSKLCSQMEQLEQENQQLKEGAAGAGVAQAGPLVDGELLRLQAENTALQKNVAALQERYGKEAGKFSAVSEGQGDPPGGLAPTVLAPMPLAEVELKWEMEKEEKRLLWEQLQGLESSKQAETSRLQEELAKLSEKLKKKQESFCRLQTEKETLFNDSRNKIEELQQRKEADHKAQLARTQKLQQELEAANQSLAELRDQRQGERLEHAAALRALQDQVSIQSADAQEQVEGLLAENNALRTSLAALEQIQTAKTQELNMLREQTTGLAAELQQQQAEYEDLMGQKDDLNSQLQESLRANSRLLEQLQEIGQEKEQLTQELQEARKSAEKRKAMLDELAMETLQEKSQHKEELGAVRLRHEKEVLGVRARYERELRELHEDKKRQEEELRGQIREEKARTRELETLQQTVEELQAQVHSMDGAKGWFERRLKEAEESLQQQQQEQEEALKQCREQHAAELKGKEEELQDVRDQLEQAQEERDCHLKTISSLKQEVKDTVDGQRILEKKGSAALKDLKRQLHLERKRADKLQERLQDILTNSKSRSGLEELVLSEMNSPSRTQTGDSSSISSFSYREILREKESSAVPARSLSSSPQAQPPRPAELSDEEVAELFQRLAETQQEKWMLEEKVKHLEVSSASMAEDLCRKSAIIETYVMDSRIDVSVAAGHTDRSGLGSVLRDLVKPGDENLREMNKKLQNMLEEQLTKNMHLHKDMEVLSQEIVRLSKECVGPPDPDLEPGETS [GRIPAP1] | 0.476 | 49.3 | 49.8 | -0.112 | 0.674 | -0.142
MAQESPKNSAAEIPVTSNGEVDDSREHSFNRDLKHSLPSGLGLSETQITSHGFDNTKEGVIEAGAFQGSPAPPLPSVMSPSRVAASRLAQQGSDLIVPAGGQRTQTKSGPVILADEIKNPAMEKLELVRKWSLNTYKCTRQIISEKLGRGSRTVDLELEAQIDILRDNKKKYENILKLAQTLSTQLFQMVHTQRQLGDAFADLSLKSLELHEEFGYNADTQKLLAKNGETLLGAINFFIASVNTLVNKTIEDTLMTVKQYESARIEYDAYRTDLEELNLGPRDANTLPKIEQSQHLFQAHKEKYDKMRNDVSVKLKFLEENKVKVLHNQLVLFHNAIAAYFAGNQKQLEQTLKQFHIKLKTPGVDAPSWLEEQ [ARFIP1] | 0.623 | 51.2 | 50.9 | -0.00419 | -0.0158 | 0.558
MAQLGKLLKEQKYDRQLRLWGDHGQEALESAHVCLINATATGTEILKNLVLPGIGSFTIIDGNQVSGEDAGNNFFLQRSSIGKNRAEAAMEFLQELNSDVSGSFVEESPENLLDNDPSFFCRFTVVVATQLPESTSLRLADVLWNSQIPLLICRTYGLVGYMRIIIKEHPVIESHPDNALEDLRLDKPFPELREHFQSYDLDHMEKKDHSHTPWIVIIAKYLAQWYSETNGRIPKTYKEKEDFRDLIRQGILKNENGAPEDEENFEEAIKNVNTALNTTQIPSSIEDIFNDDRCINITKQTPSFWILARALKEFVAKEGQGNLPVRGTIPDMIADSGKYIKLQNVYREKAKKDAAAVGNHVAKLLQSIGQAPESISEKELKLLCSNSAFLRVVRCRSLAEEYGLDTINKDEIISSMDNPDNEIVLYLMLRAVDRFHKQQGRYPGVSNYQVEEDIGKLKSCLTGFLQEYGLSVMVKDDYVHEFCRYGAAEPHTIAAFLGGAAAQEVIKIITKQFVIFNNTYIYSGMSQTSATFQL [NAE1] | 0.0839 | 51.5 | 51.3 | -0.191 | 0.0621 | 0.146
MAQVEKRGGLLRKSSASKKPLKEKVVLMYDEIFMTEDPSKCSPRFWEELFLMKVNLEYLEGKLESLDGEELMKIKDNINCLFQHCIQALGEEHPIRVVNALQTLCALIRGVHQKNKSTSGFDIINMLMGFDKAELCMKNLMESLDSLLCAEGSESLKSLCLKLLLCLVTVTDNISQNTILEYVMINSIFEAILQILSHPPSRREHGYDAVVLLALLVNYRKYESVNPYIVKLSIVDDEATLNGMGLVIAQALSEYNRQYKDKEEEHQSGFFSALTNMVGSMFIADAHEKISVQTNEAILLALYEAVHLNRNFITVLAQSHPEMGLVTTPVSPAPTTPVTPLGTTPPSSDVISSVELPLDADVQTSNLLITFLKYSSIVMQDTKDEHRLHSGKLCLIILTCIAEDQYANAFLHDDNMNFRVNLHRMPMRHRKKAADKNLPCRPLVCAVLDLMVEFIVTHMMKEFPMDLYIRCIQVVHKLLCYQKKCRVRLHYTWRELWSALINLLKFLMSNETVLLAKHNIFTLALMIVNLFNMFITYGDTFLPTPSSYDELYYEIIRMHQSFDNLYSMVLRLSTNAGQWKEAASKVTHALVNIRAIINHFNPKIESYAAVNHISQLSEEQVLEVVRANYDTLTLKLQDGLDQYERYSEQHKEAAFFKELVRSISTNVRRNLAFHTLSQEVLLKEFSTIS [C10ORF76] | -0.113 | 54.1 | 55.3 | -0.122 | -0.1 | -1.32
MAREMTILGSAVLTLLLAGYLAQQYLPLPTPKVIGIDLGTTYCSVGVFFPGTGKVKVIPDENGHISIPSMVSFTDNDVYVGYESVELADSNPQNTIYDAKRFIGKIFTAEELEAEIGRYPFKVLNKNGMVEFSVTSNETITVSPEYVGSRLLLKLKEMAEAYLGMPVANAVISVPAEFDLKQRNSTIEAANLAGLKILRVINEPTAAAMAYGLHKADVFHVLVIDLGGGTLDVSLLNKQGGMFLTRAMSGNNKLGGQDFNQRLLQYLYKQIYQTYGFVPSRKEEIHRLRQAVEMVKLNLTLHQSAQLSVLLTVEEQDRKEPHSSDTELPKDKLSSADDHRVNSGFGRGLSDKKSGESQVLFETEISRKLFDTLNEDLFQKILVPIQQVLKEGHLEKTEIDEVVLVGGSTRIPRIRQVIQEFFGKDPNTSVDPDLAVVTGVAIQAGIDGGSWPLQVSALEIPNKHLQKTNFN [HSPA13] | 0.088 | 54.6 | 53.3 | 0.00641 | 4.12 | 4.92
MARGLGAPHWVAVGLLTWATLGLLVAGLGGHDDLHDDLQEDFHGHSHRHSHEDFHHGHSHAHGHGHTHESIWHGHTHDHDHGHSHEDLHHGHSHGYSHESLYHRGHGHDHEHSHGGYGESGAPGIKQDLDAVTLWAYALGATVLISAAPFFVLFLIPVESNSPRHRSLLQILLSFASGGLLGDAFLHLIPHALEPHSHHTLEQPGHGHSHSGQGPILSVGLWVLSGIVAFLVVEKFVRHVKGGHGHSHGHGHAHSHTRGSHGHGRQERSTKEKQSSEEEEKETRGVQKRRGGSTVPKDGPVRPQNAEEEKRGLDLRVSGYLNLAADLAHNFTDGLAIGASFRGGRGLGILTTMTVLLHEVPHEVGDFAILVQSGCSKKQAMRLQLLTAVGALAGTACALLTEGGAVGSEIAGGAGPGWVLPFTAGGFIYVATVSVLPELLREASPLQSLLEVLGLLGGVIMMVLIAHLE [SLC39A7] | -0.392 | 59.2 | 57.1 | -0.00492 | -0.93 | -2.25
MARK2 | -0.0826 | 49.6 | 48.7 | 0.0431 | 0.513 | 0.569
MARKRAAGGEPRGRELRSQKSKAKSKARREEEEEDAFEDEKPPKKSLLSKVSQGKRKRGCSHPGGSADGPAKKKVAKVTVKSENLKVIKDEALSDGDDLRDFPSDLKKAHHLKRGATMNEDSNEEEEESENDWEEVEELSEPVLGDVRESTAFSRSLLPVKPVEIEIETPEQAKTRERSEKIKLEFETYLRRAMKRFNKGVHEDTHKVHLLCLLANGFYRNNICSQPDLHAIGLSIIPARFTRVLPRDVDTYYLSNLVKWFIGTFTVNAELSASEQDNLQTTLERRFAIYSARDDEELVHIFLLILRALQLLTRLVLSLQPIPLKSATAKGKKPSKERLTADPGGSSETSSQVLENHTKPKTSKGTKQEETFAKGTCRPSAKGKRNKGGRKKRSKPSSSEEDEGPGDKQEKATQRRPHGRERRVASRVSYKEESGSDEAGSGSDFELSSGEASDPSDEDSEPGPPKQRKAPAPQRTKAGSKSASRTHRGSHRKDPSLPAASSSSSSSKRGKKMCSDGEKAEKRSIAGIDQWLEVFCEQEEKWVCVDCVHGVVGQPLTCYKYATKPMTYVVGIDSDGWVRDVTQRYDPVWMTVTRKCRVDAEWWAETLRPYQSPFMDREKKEDLEFQAKHMDQPLPTAIGLYKNHPLYALKRHLLKYEAIYPETAAILGYCRGEAVYSRDCVHTLHSRDTWLKKARVVRLGEVPYKMVKGFSNRARKARLAEPQLREENDLGLFGYWQTEEYQPPVAVDGKVPRNEFGNVYLFLPSMMPIGCVQLNLPNLHRVARKLDIDCVQAITGFDFHGGYSHPVTDGYIVCEEFKDVLLTAWENEQAVIERKEKEKKEKRALGNWKLLAKGLLIRERLKRRYGPKSEAAAPHTDAGGGLSSDEEEGTSSQAEAARILAASWPQNREDEEKQKLKGGPKKTKREKKAAASHLFPFEQL [XPC] | -0.919 | 47.7 | 48.4 | 0.43 | 0.959 | 2.74
MARPLVPSSQKALLLELKGLQEEPVEGFRVTLVDEGDLYNWEVAIFGPPNTYYEGGYFKARLKFPIDYPYSPPAFRFLTKMWHPNIYETGDVCISILHPPVDDPQSGELPSERWNPTQNVRTILLSVISLLNEPNTFSPANVDASVMYRKWKESKGKDREYTDIIRKQVLGTKVDAERDGVKVPTTLAEYCVKTKAPAPDEGSDLFYDDYYEDGEVEEEADSCFGDDEDDSGTEES [CDC34] | 0.3 | 48.8 | 49.1 | -0.0905 | 0.555 | 2.54
MARVLKAAAANAVGLFSRLQAPIPTVRASSTSQPLDQVTGSVWNLGRLNHVAIAVPDLEKAAAFYKNILGAQVSEAVPLPEHGVSVVFVNLGNTKMELLHPLGRDSPIAGFLQKNKAGGMHHICIEVDNINAAVMDLKKKKIRSLSEEVKIGAHGKPVIFLHPKDCGGVLVELEQA [MCEE] | 0.471 | 57.8 | 56.1 | 0.128 | -0.379 | -2.18
MASAGDTQAGPRDAADQNFDYMFKLLLIGNSSVGKTSFLFRYADDSFTPAFVSTVGIDFKVKTVYRHDKRIKLQIWDTAGQERYRTITTAYYRGAMGFLLMYDIANQESFAAVQDWATQIKTYSWDNAQVILVGNKCDLEDERVVPAEDGRRLADDLGFEFFEASAKENINVKQVFERLVDVICEKMNESLEPSSSSGSNGKGPAVGDAPAPQPSSCSC [RAB3D] | 0.0512 | 57.2 | 57.6 | -0.109 | -1.66 | -1.58

From the supplement of paper PMC5998384
